Experimental data reported in US20030167129A1 (published 2003).
Where no end group is shown, it is not given here. [ ]: non-standard residue; d: D form. 1Nal = N[C@@H](Cc1cccc2ccccc12)C(=O)O; 2Nal = N[C@@H](Cc1ccc2ccccc2c1)C(=O)O; Tic = O=C(O)[C@@H]1Cc2ccccc2CN1; Aib = CC(C)(N)C(=O)O

B1: CPI-1221 (peptide)
peptide: MARSLIWRPAKAKKK
notes: Original 15-mer consensus peptide; also called M-A-R-S-L-I-W-R-P-A-K-A-K-K-K
B2: CPI-1500 (peptide)
peptide: ARSLI[2Nal]R[Tic]ARR[2Nal]RR-NH2
modifications: N-terminus assumed
SMILES: CC[C@H](C)[C@H](NC(=O)[C@H](CC(C)C)NC(=O)[C@H](CO)NC(=O)[C@H](CCCNC(=N)N)NC(=O)[C@H](C)N)C(=O)N[C@@H](Cc1ccc2ccccc2c1)C(=O)N[C@@H](CCCNC(=N)N)C(=O)N1Cc2ccccc2C[C@H]1C(=O)N[C@@H](C)C(=O)N[C@@H](CCCNC(=N)N)C(=O)N[C@@H](CCCNC(=N)N)C(=O)N[C@@H](Cc1ccc2ccccc2c1)C(=O)N[C@@H](CCCNC(=N)N)C(=O)N[C@@H](CCCNC(=N)N)C(N)=O
B3: CPI-1366 (peptide)
peptide: Ac-ARSLI[2Nal]RAARR[2Nal]RR
notes: also called Ac-ARSLI(2-Nal)RAARR(2-Nal)RR
B4: CPI-1456 (peptide)
peptide: RRARSLI[2Nal]RAARR[2Nal]RR
notes: also called RRARSLI(2-Nal)RAARR(2-Nal)RR
B5: CXCR4-GST (receptor, human, UniProt P61073 1-352, looked up)
chain: MEGISIYTSDNYTEEMGSGDYDSMKEPCFREENANFNKIFLPTIYSIIFLTGIVGNGLVILVMGYQKKLRSMTDKYRLHLSVADLLFVITLPFWAVDAVANWYFGNFLCKAVHVIYTVNLYSSVLILAFISLDRYLAIVHATNSQRPRKLLAEKVVYVGVWIPALLLTIPDFIFANVSEADDRYICDRFYPNDLWVVVFQFQHIMVGLILPGIVILSCYCIIISKLSHSKGHQKRKALKTTVILILAFFACWLPYYIGISIDSFILLEIIKQGCEFENTVHKWISITEALAFFHCCLNPILYAFLGAKFKTSAQHALTSVSRGSSLKILSKGKRGGHSSVSTESESSSFHSS
notes: whole, on cells; Full-length receptor expressed by baculovirus in High Five or Sf9 insect cells; assayed as membrane preparations or solubilized and immobilized on glutathione resin; also called GST-CXCR4 (High Five); CXCR4 with C-terminal GST tag; not shown: C-terminal GST tag

Target: T1, CXCR4 (CXC chemokine receptor 4), tagged construct not stated (human, UniProt P61073 1-352)
T1 construct: whole, on cells; Receptor of the radioligand displacement assays of the peptides; in insect cell membranes; also called the receptor; CXCR4-containing membranes
Test: radioligand displacement of [125I]-SDF-1 from CXCR4

Binder	IC50
B1	~60000 nM

Target: CXCR4 as HIV co-receptor in the HIV infectivity assay (HELA / Magi cells) (UniProt P61073 1-352, limits assumed)
Test: cell-based or functional assay

Binder	inhibition of HIV IIIb infection, EC50
B2	280 nM

Target: T1, CXCR4 (CXC chemokine receptor 4), …
Test: binding inhibition curves, [125I]-SDF1α displacement

Binder	binding result
ARSLI[2Nal]RAARR[2Nal]RR (also called ARSLI(2-Nal)RAARR(2-Nal)RR) [CPI-1365]	binds

Target: T1, CXCR4 (CXC chemokine receptor 4), …
Test: inhibition of [125I]-SDF1α binding to CXCR4

Binder	binding result
ARSLIWRLARRWRR [CPI-1425]	binds
FHEFRSLIWRPAKAKKK [CPI-1300]	binds
YHEFRSLIWRPAKAKKK [CPI-1299]	binds
MARSLI[1Nal]RPAKAKKK [CPI-1291]	binds
ARSLIWRPAKAKKK [CPI-1292]	binds
MAESLIWRPARRWRR [CPI-1374]	binds
KKKARSLIWRPAKAKKK [CPI-1331]	binds
RSLIWRPAKAKKK [CPI-1247]	binds
ISLIWRPAKAKKK [CPI-1248]	binds
MARSLIWRPAREWRR [CPI-1377]	binds
MARSAIWRPAKAKKK [CPI-1307]	binds
MARALIWRPAKAKKK [CPI-1328]	binds
MARSLIWRPAKAAKK [CPI-1301]	binds
MARSLIARPAKAKKK [CPI-1304]	binds
MARSLIWRPAAAKKK [CPI-1306]	binds
MAASLIWRPAKAKKK [SEQ ID NO 12 (Table 1 row without a CPI number)]	binds
MARSLIWAPAKAKKK [CPI-1305]	binds
MARSLIWRAAKAKKK [CPI-1295]	binds
MARSTIWRPAKAKKK [CPI-1298]	binds
MARSLAWRPAKAKKK [CPI-1308]	binds
MAASLIWRPAKAKKK [CPI-1329]	binds
MARSLIWRPAKAKAK [CPI-1310]	binds

Binder	binding result
MARSFIWRPAKAKKK [CPI-1296]	binds
MARSLIWGPAKAKKK [CPI-1334]	binds
MARSLIWRPAKAKKA [CPI-1312]	binds
ARSLI[2Nal]RHARR[2Nal]RR (also called ARSLI(2-Nal)RHARR(2-Nal)RR) [CPI-1443]	binds
B3	binds
ARSLI[2Nal]RPARR[2Nal]RR (also called ARSLI(2-Nal)RPARR(2-Nal)RR) [CPI-1701]	binds
ARSLI[2Nal]R[Tic]ARR[2Nal]RR [CPI-1458]	binds
MARSLIWEPARRWRR [CPI-1372]	binds
ARSLIWRPARRRRR [CPI-1297]	binds
FARSLIERAARRWRR [CPI-1330]	binds
FARSLI[2Nal]EAARR[2Nal]RR (also called FARSLI(2-Nal)EAARR(2-Nal)RR) [CPI-1389]	binds
ARSIWRLARRWRR [CPI-1382]	binds
MARSLIWRPAKARRR [CPI-1289]	binds
MARSLIWRPAKKK [CPI-1249]	binds
RSLIWRPAK [CPI-1250]	binds
MARSLIWRP[Aib]KAKKK [CPI-1303]	binds
MARSLIWRPAERWRR [CPI-1373]	binds
FARSLI[2Nal]AARR[2Nal]RR [CPI-1390]	binds
MARSLIWRPARRRRR [CPI-1332]	binds
B4	binds
MARSLIWR[Tic]AKAKKK [CPI-1302]	binds
MARSLI[2Nal]RPAKAKKK [CPI-1309]	binds

Target: T2, SDF-1α (UniProt P48061-2 22-89, 125I label on the radioligand form)
T2 construct: Labelled and unlabelled forms are kept as one molecule
T2 sequence (P48061 22-89 limits assumed): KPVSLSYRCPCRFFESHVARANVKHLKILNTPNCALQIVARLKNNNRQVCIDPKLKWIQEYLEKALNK
Test: radioligand saturation binding, [125I]-SDF-1α on membrane preparations of GST-CXCR4 (High Five)
Description: Whole cells from Sf9 and High five cell lines were lysed using hypotonic buffers (10 mM Tris, pH 7.4, 5 mM EDTA), and membrane preparations were made by homogenization and centrifugation using standard techniques known to those skilled in the art. […] For filtration and washing, the reaction was transferred to Millipore Multiscreen filter plates (HATF 0.45 μm; pre-blocked with 10% BSA) (Bedford, Mass.), filtered using vacuum, washed 4-5 times with 200 μL ice-cold buffer, and radioactive counts bound were detected using scintillation counting. All points were done in triplicate. Uninfected cells were used as a control for this experiment. […] Analyses of KD and IC₅₀ were performed using non-linear curve fitting in Kaleidagraph (software program sold by Synergy Software, Reading, Pa.).

Binder	Kd
B5	3.27 nM
